Results published in PMC2839002.

Target: YFP-SmB′ (UniProt P14678)
Experiment: co-IP

fold coilin recovered with anti-GFP relative to NMS: 4.5 fold
Substance: coilin, endogenous in HeLa (from UniProt P38432 1-576) (natural protein)
